From IntAct's records for PubMed 22153509

B1: Interleukin-5 receptor subunit alpha (Homo sapiens), Q01344-2 (parent)
chain: MIIVAHVLLILLGATEILQADLLPDEKISLLPPVNFTIKVTGLAQVLLQWKPNPDQEQRNVNLEYQVKINAPKEDDYETRITESKCVTILHKGFSASVRTILQNDHSLLASSWASAELHAPPGSPGTSIVNLTCTTNTTEDNYSRLRSYQVSLHCTWLVGTDAPEDTQYFLYYRYGSWTEECQEYSKDTLGRNIACWFPRTFILSKGRDWLAVLVNGSSKHSAIRPFDQLFALHAIDQINPPLNVTAEIEGTRLSIQWEKPVSAFPIHCFDYEVKIHNTRNGYLQIEKLMTNAFISIIDDLSKYDVQVRAAVSSMCREAGLWSEWSQPIYVGFSR

Variants of: B1
Conditions: with il5_human IL5, P05113
Chain of il5_human IL5, P05113 (P05113 whole entry): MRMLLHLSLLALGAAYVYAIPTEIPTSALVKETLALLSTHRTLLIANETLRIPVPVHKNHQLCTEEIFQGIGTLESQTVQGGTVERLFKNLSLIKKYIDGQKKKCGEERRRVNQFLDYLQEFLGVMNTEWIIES

Row | Variant | effect of a mutation on the interaction
1 | D75E | decreasing interaction
2 | L43A | disrupting interaction
3 | E78P | disrupting interaction
4 | I89A | decreasing interaction
5 | S84A | decreasing interaction
6 | R80A | decreasing interaction
7 | Y77A | decreasing interaction

The remaining lines, values ahead:

Row | effect of a mutation on the interaction | Variant
8 | decreasing interaction | I203A
9 | decreasing interaction | R208K
10 | disrupting interaction | D228A
11 | decreasing interaction | W178A
12 | decreasing interaction | M315A
